Literature values in publication PMC5828189.

Target: C1q globular head (gC1q) (Homo sapiens) (UniProt P02745)
Sequence of UniProt P02745 (P02745 23-245, chain 1 of 3): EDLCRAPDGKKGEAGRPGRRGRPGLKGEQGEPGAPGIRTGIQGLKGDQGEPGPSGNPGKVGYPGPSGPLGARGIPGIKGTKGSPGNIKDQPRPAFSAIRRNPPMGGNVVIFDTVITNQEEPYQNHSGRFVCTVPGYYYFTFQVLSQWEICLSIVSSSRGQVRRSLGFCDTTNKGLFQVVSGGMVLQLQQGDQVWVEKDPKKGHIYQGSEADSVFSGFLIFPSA
Sequence of UniProt P02745 (P02746 28-253, chain 2 of 3, further chain): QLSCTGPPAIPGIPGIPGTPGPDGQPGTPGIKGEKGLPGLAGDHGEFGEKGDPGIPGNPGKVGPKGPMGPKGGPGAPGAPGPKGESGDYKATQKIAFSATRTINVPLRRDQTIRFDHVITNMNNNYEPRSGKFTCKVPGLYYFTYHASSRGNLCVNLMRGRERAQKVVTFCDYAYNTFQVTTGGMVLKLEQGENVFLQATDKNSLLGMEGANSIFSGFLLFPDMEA
Sequence of UniProt P02745 (P02747 29-245, chain 3 of 3, further chain): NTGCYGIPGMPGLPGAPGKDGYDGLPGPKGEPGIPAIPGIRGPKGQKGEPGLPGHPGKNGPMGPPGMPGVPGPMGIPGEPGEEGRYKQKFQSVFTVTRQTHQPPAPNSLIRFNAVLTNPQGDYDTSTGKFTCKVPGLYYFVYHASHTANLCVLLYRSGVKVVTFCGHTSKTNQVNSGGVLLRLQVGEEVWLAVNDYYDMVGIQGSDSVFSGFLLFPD

Kd: 75 nM
Substance: HABP1/p32/gC1qR (from UniProt Q07021)
